Tested on: MS2 coat protein
Test: apparent KD of MS2 coat protein; designed switch direction (-1 OFF switch, 1 ON switch): -1; higher = weaker reporter binding
How it was run: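 The reported apparent KD is a per-design median over clusters, from curve fits of normalised cluster fluorescence. Protein titrations used SNAP-549-labelled MS2 coat protein, doubled from 0.7 or 1.5 nM to 3 µM, in Tris-HCl pH 7.5 buffer with KCl, MgCl2, BSA, DTT, tRNA and Tween-20, with no input, 200 uM small-molecule ligand, or an oligonucleotide input. The RNA switches were transcribed on Illumina chips by stalled E. coli RNA polymerase.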

[1] = input ligand: microRNA oligo, concentration not stated
[2] = Eterna round: R95, input ligand: FMN 200 uM
[3] = Eterna round: R95, input ligand: microRNA oligo, concentration not stated
[4] = Eterna round: R95, input ligand: none

## UCGCUCCGUGUAGGAUAUCGCUGUAUGAUGCGGCGAGAAGGACAUGAGGAUCACCCAUGUAUGUUAUUAUCACGCGUGGCGCAA [Design 64] (Eterna round: R96, puzzle: Exclusion NG 1)
Input ligand: FMN 200 uM
  apparent KD of MS2 coat protein: 21.8 nM
[1]
  apparent KD of MS2 coat protein: 11.6 nM
Input ligand: none
  apparent KD of MS2 coat protein: 17.5 nM

## AGCAGACGAGGAUAUAGAUUUAGAUACAUGAGGAUCACCCAUGUAUAUAUGUAUUUAGAUUUAGAAGGCGUCUGCU [E5/15-A1] (Eterna round: R97, puzzle: Exclusion 5)
Input ligand: FMN 200 uM
  apparent KD of MS2 coat protein: 222 nM
Input ligand: none
  apparent KD of MS2 coat protein: 219 nM

## UCACGGGAUUGAGGAUAUAUAUUAAUUUUUUUUAUAGAAGGCAAAAUGUUAGAUUAUUCACUAUACAUGAGGAUCACCCAUGUU [JR_ExcBG1_Sub076] (Eterna round: R96, puzzle: Exclusion NG 1)
[1]
  apparent KD of MS2 coat protein: 18.2 nM

## AGCUAGUCAGGAUAUACAAACAUGUCAAAAGACGUGAAGAGACAUGAGGAUCACCCAUGUAGAAGGGACUAGCA [Mat - Exclusion 2 - JL mod - D13] (Eterna round: R96, puzzle: Exclusion 2)
Input ligand: FMN 200 uM
  apparent KD of MS2 coat protein: 88.1 nM
[1]
  apparent KD of MS2 coat protein: 15.7 nM
Input ligand: none
  apparent KD of MS2 coat protein: 22.9 nM

## UAGAAACAUGAGGAUCACCCAUGUGAGGAUAUGAAAAAGAAAAGAAAAGAAAGAAGAAUCAGAAGGCACAAAGG [salish99-ex1_r3_082] (puzzle: Exclusion 1)
[2]
  apparent KD of MS2 coat protein: 38.1 nM
[3]
  apparent KD of MS2 coat protein: 35.8 nM
[4]
  apparent KD of MS2 coat protein: 28.7 nM

## GGGUAGUGAGGAUAUCUUGGCAAACCCGAACCUGUCAGCCAAGAGAAGGCACUUGAGGAUCACCCAAGUACAGG [Raeratti] (Eterna round: R97, puzzle: Exclusion 4)
Input ligand: FMN 200 uM
  apparent KD of MS2 coat protein: 88.7 nM
Input ligand: none
  apparent KD of MS2 coat protein: 26.8 nM

## UUUUACAAGCUAAGAUCCUACAUGAGGAUCACCCAUGUGGUCCGGUGACGUGAGUCACCGGACUUAGCUCGUCUUGG [salish99_S_TOV1_R5_087] (Eterna round: R97, puzzle: Sensor, turn-off variant 1)
Input ligand: FMN 200 uM
  apparent KD of MS2 coat protein: 69.5 nM
Input ligand: none
  apparent KD of MS2 coat protein: 84.7 nM

## AAGUCGACGGUGAGGAUAUAGGUCGAACGACAGAUCUAGAAGGUACAUGAGGAUCACCCAUGUGGGUAACGUCG [Brourd's EX4 #35] (Eterna round: R97, puzzle: Brourd's mod of Exclusion 4)
Input ligand: FMN 200 uM
  apparent KD of MS2 coat protein: 36.8 nM
Input ligand: none
  apparent KD of MS2 coat protein: 32.4 nM

## GAGGUGUAAGGAUAUAGCUAUAGGCUAACCGGGACCCAUAGCUAGAAGGUACAUGAGGAUCACCCAUGUUUGCU [Eternabot (L1) Solution 99] (Eterna round: R97, puzzle: Exclusion 4)
Input ligand: FMN 200 uM
  apparent KD of MS2 coat protein: 34.9 nM
Input ligand: none
  apparent KD of MS2 coat protein: 22.6 nM

## AAACCUAAUGUUAGGAUAUGCUUCGGGCUUCCGCUGCAGAAGGAACAUGAGGAUCACCCAUGUCAAAUAAAAUC [JL-BMX4-4.39 ViennaUCT mod] (Eterna round: R97, puzzle: Brourd's mod of Exclusion 4)
Input ligand: FMN 200 uM
  apparent KD of MS2 coat protein: 81.8 nM
Input ligand: none
  apparent KD of MS2 coat protein: 17.6 nM

## ACGCAUUGCCUUUGGUAGUGCGUAACAUGAGGAUCACCCAUGUAGGAUAUGGUAGGCUUUGCUUACCAGAAGGACAUUAUAUUC [JL ENG3 1.03] (Eterna round: R96, puzzle: Exclusion NG 3)
Input ligand: FMN 200 uM
  apparent KD of MS2 coat protein: 69.4 nM
[1]
  apparent KD of MS2 coat protein: 22.1 nM
Input ligand: none
  apparent KD of MS2 coat protein: 21.9 nM

## GUAGAGUAAGGAUAUGGUGAAUAGGAUAGAAUGGUUAGAAACUAGAAGGUACAUGAGGAUCACCCAUGUAAUGU [Excluse me!!!! 23 - Jieux - Exclusion 4] (puzzle: Exclusion 4)
[3]
  apparent KD of MS2 coat protein: 20.8 nM

## UGUACUAACACGUAAGUGUUAGUACUAUAAGCUUGUGUUACAUGAGGAUCACCCAUGUCCUCAUAAGCUCGUCUUAA [Mat - Sensor v3 - Turn-off var 2 - D72] (puzzle: Sensor v3, turn-off variant 2)
[2]
  apparent KD of MS2 coat protein: 39.7 nM
[3]
  apparent KD of MS2 coat protein: 182 nM
[4]
  apparent KD of MS2 coat protein: 37.2 nM

## AUUUAGUGAGGAUAUGUGGCUUCGAUCGUGAGAUCGAGGCUACAGAAGGCACAUGAGGAUCACCCAUGUUCCUG [salish99_ex4_r4_113] (Eterna round: R97, puzzle: Exclusion 4)
Input ligand: FMN 200 uM
  apparent KD of MS2 coat protein: 75.7 nM
Input ligand: none
  apparent KD of MS2 coat protein: 17.5 nM

## CCGGAAAUACAGGAUAUCGUAUCGGAUACGAUACGAGAAGGGUAUACAUGAGGAUCACCCAUGUGUCCUACCGG [Fiskers Ex 6 - 51] (Eterna round: R96, puzzle: Exclusion 6)
Input ligand: FMN 200 uM
  apparent KD of MS2 coat protein: 30.1 nM
[1]
  apparent KD of MS2 coat protein: 20.2 nM
Input ligand: none
  apparent KD of MS2 coat protein: 26.3 nM

## CCAUAUAACUGAGGAUAUAAUCGCCACUGACGUUUAGAAGGCAGACAUGAGGAUCACCCAUGUGAUUUCUCAAUAUUAUACAUC [Prohibition 78 - Jieux - Exclusion NG 1] (Eterna round: R96, puzzle: Exclusion NG 1)
Input ligand: FMN 200 uM
  apparent KD of MS2 coat protein: 1840 nM
[1]
  apparent KD of MS2 coat protein: 31.1 nM
Input ligand: none
  apparent KD of MS2 coat protein: 245 nM

## AGGGCUGCUCAGGAUAUCCGUAAAAGCCGAAAAGGAGAAGGGAGCACAUGAGGAUCACCCAUGUGAUCCUAAAA [Orbemaored] (puzzle: Exclusion 6)
[2]
  apparent KD of MS2 coat protein: 28 nM
[3]
  apparent KD of MS2 coat protein: 14.6 nM
[4]
  apparent KD of MS2 coat protein: 15.5 nM

## ACAUGAGGAUCACCCAUGUUUAUUGGGUACUAUACUAUCAGCAAGGAUAUGCAAAUUUUUUUUACGCAGAAGGUGCAGGAACCU [JR_ExcNG3_Sub070] (Eterna round: R96, puzzle: Exclusion NG 3)
[1]
  apparent KD of MS2 coat protein: 355 nM

## GACUAUUCGUAGGAUAUACUACUUAGCUAUGGAGUAGAAGGACGAACAUGAGGAUCACCCAUGUGGGACCCGGG [Eternabot (L2) Solution 31] (Eterna round: R97, puzzle: Exclusion 6)
Input ligand: FMN 200 uM
  apparent KD of MS2 coat protein: 125 nM
Input ligand: none
  apparent KD of MS2 coat protein: 81.2 nM

## GCGGUACAUGAGGAUCACCCAUGUCAGGAUAUCCGCUGUUUGUUAAUAAACAAGCGGUGGAGAAGGGACUUCGC [-26.2, -25.5 kcal, 27% A] (Eterna round: R97, puzzle: Exclusion 1)
Input ligand: FMN 200 uM
  apparent KD of MS2 coat protein: 35.2 nM
Input ligand: none
  apparent KD of MS2 coat protein: 31.5 nM

## UUCGUGCAGCUUUGCUGUACGCGUACAUGAGGAUCACCCAUGUAGGAUAUGGUAGGCUUUGCUUACUAGAAGGAUAUUGUGAUC [JL EXNG3 1.32] (Eterna round: R96, puzzle: Exclusion NG 3)
Input ligand: FMN 200 uM
  apparent KD of MS2 coat protein: 256 nM
[1]
  apparent KD of MS2 coat protein: 80.9 nM
Input ligand: none
  apparent KD of MS2 coat protein: 123 nM

## UAUUUAUAUGAAGGAUAUACUUAACAUGAGGAUCACCCAUGUGGUGUUGUGAGUGAGUGAGUUUAGUAGAAGGUCAAUGAUUUU [JMF's solution 74] (Eterna round: R96, puzzle: Exclusion NG 2)
Input ligand: FMN 200 uM
  apparent KD of MS2 coat protein: 870 nM
[1]
  apparent KD of MS2 coat protein: 286 nM
Input ligand: none
  apparent KD of MS2 coat protein: 311 nM

## AAUAACAAGCAGAUCCUAAACAUGAGGAUCACCCAUGUGCGCGUCUUGUAAAGUACUAUCACGAAAGUGAUAGUACA (Eterna round: R97, puzzle: Sensor, turn-off variant 1)
Input ligand: FMN 200 uM
  apparent KD of MS2 coat protein: 190 nM
Input ligand: none
  apparent KD of MS2 coat protein: 133 nM

## CCCGGGUCUGCAGGAUAUUCGAAAGCAGGUCAAAGGUCACAUGAGGAUCACCCAUGUAGUUUAACGAAGAAGGGUGUCGCCCGU [Eternabot solution 38] (Eterna round: R96, puzzle: Exclusion NG 2)
Input ligand: FMN 200 uM
  apparent KD of MS2 coat protein: 168 nM
[1]
  apparent KD of MS2 coat protein: 76.7 nM
Input ligand: none
  apparent KD of MS2 coat protein: 162 nM

## GAAUAUAAGCAAAGAUCCUACAUGAGGAUCACCCAUGUGCUCGUCUUAUAAAGUACUAUCACGAAAGUGAUAGUACA [Mat - Sensor v3 - turn-off var 1 - Eli Mod - D82] (puzzle: Sensor v3, turn-off variant 1)
[2]
  apparent KD of MS2 coat protein: 89.9 nM
[3]
  apparent KD of MS2 coat protein: 25.1 nM
[4]
  apparent KD of MS2 coat protein: 135 nM

## UUUGUUGUUGUGAGGAUAUCGUUGUUAUUUUGAAACGAGAAGGCACAUGAGGAUCACCCAUGUUUGUUGUUGGU [JR_BMOE4_Sub059] (puzzle: Brourd's mod of Exclusion 4)
[3]
  apparent KD of MS2 coat protein: 48.8 nM

## AGCGGACAAGGAUAUACAUGAGGAUCACCCAUGUACUUAGCAAGUUUGUUUCGUCGAUGUAGAAGGUGUAAUGU [EX3 C.14] (Eterna round: R97, puzzle: Exclusion 3)
Input ligand: FMN 200 uM
  apparent KD of MS2 coat protein: 19.4 nM
Input ligand: none
  apparent KD of MS2 coat protein: 20.2 nM

## GCUCAACAUGAGGAUCACCCAUGUCAGGAUAUGCGAAUUUCAUCAAAAGAUGAAAUUUGCAGAAGGGACUGAGC [Omei Ex1 A31] (Eterna round: R97, puzzle: Exclusion 1)
Input ligand: FMN 200 uM
  apparent KD of MS2 coat protein: 27.2 nM
Input ligand: none
  apparent KD of MS2 coat protein: 22 nM

## CUCCGGCAUGUAGGAUAUGGAUCCGAUUAGGAUCCAGAAGGACAUGAGGAUCACCCAUGUACAUGUAAACAGUCAUCACCGGAC [salish99_ExNG1_r04_202] (Eterna round: R96, puzzle: Exclusion NG 1)
Input ligand: FMN 200 uM
  apparent KD of MS2 coat protein: 284 nM
[1]
  apparent KD of MS2 coat protein: 29.9 nM
Input ligand: none
  apparent KD of MS2 coat protein: 44.2 nM

## UCACGGGUUUGAGGAUAUAUAUUUAUUAUUUUAAUAGAAGGCAAAGAGAUAGUUUUUUCACUAUACAUGAGGAUCACCCAUGUU [JR_ExcNG1_Sub087] (Eterna round: R96, puzzle: Exclusion NG 1)
[1]
  apparent KD of MS2 coat protein: 27.6 nM

## CAUGAUCUUCGGAUCAUGUACAUGAGGAUCACCCAUGUGACGAGUUGAUCCUCAUACAAGCUUUUUGCUCGUCUUAU [Sensor v3 - Turn-off variant 1 - 15] (puzzle: Sensor v3, turn-off variant 1)
[2]
  apparent KD of MS2 coat protein: 26.8 nM
[3]
  apparent KD of MS2 coat protein: 16.7 nM
[4]
  apparent KD of MS2 coat protein: 24.4 nM

## CUAACAUGCUGGUGAUCAUACAUGAGGAUCACCCAUGUAACAAGCUUUUUGCUCGUCUUAUAAGAUUACUAGUAUGU [Stov1/10-A4] (Eterna round: R97, puzzle: Sensor, turn-off variant 1)
Input ligand: FMN 200 uM
  apparent KD of MS2 coat protein: 21.4 nM
Input ligand: none
  apparent KD of MS2 coat protein: 21.9 nM

## UACUUGUUAGGAUAUCUUACAUUUGCAUCAUAGUAACCAUUGGAGAAGGGACAUGAGGAUCACCCAUGUUUGGA [tap-tap-tappy2] (Eterna round: R97, puzzle: Exclusion 4)
Input ligand: FMN 200 uM
  apparent KD of MS2 coat protein: 32.2 nM
Input ligand: none
  apparent KD of MS2 coat protein: 31.5 nM

Source: the supplement of paper PMC9170038
